Reference: patent US20120192301

How the values were obtained:
[1] = test system: SBS 26334 ZFN (engineered); assay: cell_activity; conditions: Cel-I indels, pair 26323/26334, K562, no donor
[2] = test system: SBS 26323 ZFN (engineered); assay: cell_activity; conditions: Cel-I indels, pair 26323/26334, K562, no donor

Row | Sequence | activity [1] [%] | activity [2] [%]
1 | AACAGGTAAGCTCCATTGTGCTTATATC (double strand) [SNCA site 36 (25358/26334)] | < 45 | 
2 | CACACCATGCACCACTCCCTCCTTGGTT (double strand) [SNCA site 37 (26323/26327/26331)] |  | < 45
